Measured values from the nanobody polyreactivity screen of Harvey et al. (2022).

Experiment: yeast display, Sf9 membrane polyspecificity reagent, FACS + sequencing; frameworks hold sequencing errors
Summary of the method: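 A synthetic nanobody library was expressed on Saccharomyces cerevisiae BJ5465 by galactose induction for 36–48 hours. The library was stained for 1 hour at 4 °C with 10% biotinylated, detergent-solubilized Sf9 membrane reagent and enriched with streptavidin microbeads before FACS. Low and high (top ~1%) gates were set on anti-HA fluorescence for expression and streptavidin fluorescence for reagent binding, and each polyreactivity label reflects the gate of origin.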
In the case of “QVQLVESGGGLVQAGGSLRLSCAASGLTFDLYNMGVYRKAPGKERELVAAISLSGGSTYYADSVKGRFTISRDNAKNTVYLQMNILKPDYTAVYYCAAAHSSSVIVEYDYWGQGTQVTVSS”, the “polyreactivity (PSR sort gate)” value was “low polyreactivity”. With “QVQLVESGGGLVQAGGSLRLSCAASGSTFYRNAMGWYRQARGKERELVAAISRGGSTYYADSVKGRFTISRDNAKNTVYLQMNSLKPEDTAVYYCNTDVNYAGYGWYYYWGQGTQVTVSS” the “polyreactivity (PSR sort gate)” value was “high polyreactivity”. In the case of “QVQLVESGGGLVQAGGSLRLSCAASGRIFGTYAMGWYIQAPGKERELVAGITWRTASTYYADSVKGRFTISRDNAKNTVYLQMNSLKPEDTAVYYCNADAWVWYYYYSYDYWGQGTQVTVSS”, the “polyreactivity (PSR sort gate)” value was “low polyreactivity”. With “QVQLVESGGGLVQAGGSLRLSCAASGFTFRDYAMGWYRQAPGKERELVAVISDSGGRTYYADSVKGRFTISRDNAKNTVYLQMNSLKPEDTAVYYCAARGYRSGGGYNYWGQGTQVTVSS” the “polyreactivity (PSR sort gate)” value was “high polyreactivity”. With “QVQLVESGGGLVQAGGSLRISCAASGGTFTNYAMGWYRQAPGKERELVAAITDSGATTYYADSVKGRFTISRDNAKNTVYLQMNSLKPEDTAVYYCNAELDLYTDFDYWGQGTQVTVSS” the “polyreactivity (PSR sort gate)” value was “low polyreactivity”. In the case of “QDQLVESGGGLVQAGGSLRLSCAASGFTFYLYAMGWYRQAPGKERELVAAINGGGSSTYYADSVKGRFTISRDNAKTTVYLEMNSLKPEDTAVYYCNAVYYVVYVKEFDYWGQGTQVTVSS”, the “polyreactivity (PSR sort gate)” value was “high polyreactivity”. With “QVQLVESGGGLVQAGGSLRLSCAASGSTFRQNTMGWYRQAPGKEREFVAAINYSGGSTNYADSVKGRFTISRDNAKNTVYLQMNSLKPEDTAVYYCAVRQYYYKRMGYWGQGTQVTVSS” the “polyreactivity (PSR sort gate)” value was “high polyreactivity”. With “QVQLVESGGGLVQAGGSLRLSCAASGSIFYLNARGWYRQAPGKERELVASINRGGITYYADSVKGRFTISRDNAKNTVYLQMNSLKPEDTAVYYCAARSPYVSYRSNYYYWGQGTQVTVSS” the “polyreactivity (PSR sort gate)” value was “high polyreactivity”. In the case of “QVQLVESGGGLVQAGGSLRLSCAASGSIFSSYAMGWYRQAPGKERELVAAISTAGSTNYADSVKGRFTISRDNAKNTVYLQMNSLKPEDTAVYYCAADSGDQQSYGLDLNHDFDYWGQGTQVTVSS”, the “polyreactivity (PSR sort gate)” value was “low polyreactivity”. In the case of “QVQLVESGGGLVQAGGSLRLSCAASGGIFVFYAMGWYRQAPGKERELVAAIRYGGSSTYYADSVKGRFTISRDNAKNTVYLQMNSLKPEDTAVYYCAAEHYSVYDPIGDYWGQGTQVTVSS”, the “polyreactivity (PSR sort gate)” value was “low polyreactivity”. For “QVQLVESGGGLVQAGGSLRLSCAASGRIFNGYAMGWYRQAPGKERELVAAITTSGGSTYYADSVKGRFTISRDNAKNTVYLQMNSLKPEDTAVYYCAKYYPRYAYDYWGQGTQVTVSS”, the “polyreactivity (PSR sort gate)” value was “low polyreactivity”. For “QVQLVESGGGLVQAGGSLRLSCAASGFIFSGNAMGWYRQAPGKERELVAAISSGGSTNYADSVKGRFTISRDNAKNTVYLQMNSLKPEDTAVYYCNADSPERIPVDLENDYWGQGTQVTVSS”, the “polyreactivity (PSR sort gate)” value was “low polyreactivity”. In the case of “QVQLVESGGGLVQAGGSLRLSCAASGSTFYKYAMGWYRQAPGKERELVAAITRSGGSTYYADSVKGRFTISRDNAKNTVYLQMNSLKPEDTAVYYCNADRKSRSKGVGYDYWGQGTQVTVSS”, the “polyreactivity (PSR sort gate)” value was “high polyreactivity”. In the case of “QVQLVESGGGLVQAGGSLRLSCAASGSTFYYYAMGWYRQAPGKERELVAAISGGGNTKYADSVKGRFTISRDNAKNTVYLQMNSLKPEDTAVYYCAARLAYWYYYAWRGPYYYWGQGPQVTVSS”, the “polyreactivity (PSR sort gate)” value was “high polyreactivity”. In the case of “QVQLVESGGGLVQAGGSLRLSCAASGRTFQRYAMGWYRQAPGKERELVAAITSRGGSTYYADSVKGRFTISRDNAKNTVYLQMNSLKPEDTAVYYCNARSRRTHSEPQSEMDYWGQGTQVTVSS”, the “polyreactivity (PSR sort gate)” value was “high polyreactivity”. For “QVQLVESGGGLVQAGGSLRLSCAASGSIFADYTMGCYRQAPGKERELVAAITGGGGRTYYADSVKGRFTISRDNAKNTVYLQMNSLKPEDTAVYYCAADFHDDHTSFDYWGQGTQVTVSS”, the “polyreactivity (PSR sort gate)” value was “low polyreactivity”. For “QVQLVESGGGLVQAGGSLRLSCAASGRILYWYAMGWYRQAPGKERELVAGIDWSGGSTYYADSVKGRFTISRDNAKNTVYLQMNSLKPEDTAVNYCNAVQNRGRGSHRGESTYYYWGQGTQVTVSS”, the “polyreactivity (PSR sort gate)” value was “low polyreactivity”. In the case of “RVQLVESGGGLVQAGGSLRLSCAASGSTISRYAMGWYRQAPGKERELVASISRSGTSTYYADSVKGRFTISRDNAKNTVYLQMNSLKPEDTAVYYCNKRWATSIQYRYNYWGQGTQVTVSS”, the “polyreactivity (PSR sort gate)” value was “high polyreactivity”. For “QVQLVESGGGLVQAGGSLRLSCAGSGATYERYAMGWSRPAPGKERALVAASNKRGGNTYYADSVKGRFTISRDNAKKTVYLQMNSLKPEDTAVYYCAADHLDRTEFPYYYWGQGTQVTVSS”, the “polyreactivity (PSR sort gate)” value was “high polyreactivity”. In the case of “QVQLVESGGGLVQAGGSLRLSCAASGRTFFDYTMGWYRQAPGNERELDAAITGGDGSTYYADSVKGRFTISRDNAKNTVYLEMTSLKPEDTAVYYCAAEYTRTYWYAAMDYWGQGTQVTVSS”, the “polyreactivity (PSR sort gate)” value was “low polyreactivity”. With “QVHLVESGGGLVQAGGRLRLSCAASGSIFDDYAMGWYRQAPGKERELVAAITSGGSTYYADSVKGRFTISRDNAKNNVYLEMNSLKPEDTAVYYRATRYHWSSSFAPVGAYGYWGQGSQVTVSS” the “polyreactivity (PSR sort gate)” value was “low polyreactivity”. With “QVQLVESRGGLVQAGGSLRLSCASSGSIFFSNAMGWYRQAPGKERELVAAISKSGGSTYYADSVKGRFTISRDNAKNTVYLQMNSLKPEDTAVYYCAAERTFLYWAYDYWGQGTQVTVSS” the “polyreactivity (PSR sort gate)” value was “high polyreactivity”. In the case of “QDQLVESGGGLVQAGGILRLICAASGLTFASYGMGWYRQAPGKERELVAAISSSGGITYYADSVKGRFTISRDNAKNTVYLQMNSLKPEDTAVYYCAAAKRSGYTGFKYYYWGQGTQVTVSS”, the “polyreactivity (PSR sort gate)” value was “high polyreactivity”. In the case of “QVQLVESGGGLVQAGGSLRLSCAASGFTFIPNAMGWYRQATGKERELVAAISTGGSTYYADSVKGRFTISRDNAKNTVSLQMNSLKPEDTAVYYCAAGILDLKLYFSSYDYWGQGTQVTVSS”, the “polyreactivity (PSR sort gate)” value was “low polyreactivity”. In the case of “QVQRVESGGGLVQAGGSLRLSCAASGSTFIGYDMRWYRQAPGTERELVAAISYSDGTYYADSVKGRFTISRDNAKNTVYLQMNSLKPADTAVYYCAADSLYYRYDYWGQGPQVTVSS”, the “polyreactivity (PSR sort gate)” value was “low polyreactivity”. For “QVQLVESGGGLVQAGGSLRLSWATSGFILLDNALGWYRQAPGKESEFVASINISGDRTFYADSVKGRFTISRDNAKNTVYLQMNSLKAEDTAVYYCAKEPGWGRRSTTAYDYWGQGTQVTVSS”, the “polyreactivity (PSR sort gate)” value was “low polyreactivity”. In the case of “QVQLQESGGGLVQAGGSLRLSCAASGYISHADEMGWYRQAPGKDHELVASISNGGSTNYADSVKGRFTISRDHAKNTVYLQMNSLNSEDTAVYYCAAWTGQVDIHYYWGQGTQVTVSS”, the “polyreactivity (PSR sort gate)” value was “low polyreactivity”. For “QVQLVESGGGLVQAGGSLRLSCAASGFTFRQNAMGWYRQAPRKERELVAAISSGGRTKYADSVKGRFTISRDNANNTVYLHMNSLKPEDTALYYCAADKRVYTQLNDSWGQGTQVTVSS”, the “polyreactivity (PSR sort gate)” value was “high polyreactivity”. In the case of “QVQLVESGGGLVQAGGSLRLSCAASGRTSEFNAMGWYRQAPGKERELVAAITDGGNTNYADSVKGRFTISRDNAKNTVYLQMNSLKPEDTAVYYCAAERYTWWGFDYDYWGQGTQVTVSS”, the “polyreactivity (PSR sort gate)” value was “high polyreactivity”. In the case of “QVQLVESGGGLVQAGGSLRLSCAASGRIFRGNAMGWYRQVPGKERELVAAISSGTRTTYADSVKGRFTISRDNAKNTVYLQMNSLKPEDTAVYYCAARTSNYPRWRVGGYSYDYWGQGTQVTVSS”, the “polyreactivity (PSR sort gate)” value was “high polyreactivity”. With “QVQLVESGGGLVQAGGSLRLSCAASGSIFLWNAMGWYRQAPGKERELVAAISSGTSTNYADSVKGRFTISRDNANNTVYLQMNSLKPEDTAVYYCAARGRKNQRRYGYWGQGTQVTVSS” the “polyreactivity (PSR sort gate)” value was “low polyreactivity”. With “QVQLVESGGGLVQSGGSLRLSCAASGSFYYFYSMGWYRQAPGKEREVVAANTDGGSTHYAESVKGRFTISRDNAKNTVYLQMNSMKPEDTAVYSCAAQWHYYLGSGYQYDYWGQGTQVTVSS” the “polyreactivity (PSR sort gate)” value was “low polyreactivity”. In the case of “QVQLVESGGGLVQAGGSLSLSCDASGRIIHSYAMGWYRQEPGKERELVAAISWSGTSTYYADSVKGRFTISRDNAKNTVYLQMNSLKPEDTEVYYCAARGRYVFDGYRMYFWGQGSQVTVSS”, the “polyreactivity (PSR sort gate)” value was “high polyreactivity”. With “QVQLVESGGGLVQAGGSLRLSCAASGRIIAVNAKGWYRQAPGKERELVAAINGGGSTNYADSVKGRFTISRDNAKNTVYLQMNSLKPEDTAVYYCAADVGWRSQTRGYYWGQGTQVTVSS” the “polyreactivity (PSR sort gate)” value was “high polyreactivity”. In the case of “QVQLVESGGGLVQAGGSLRLSCAASGSIFYPYAMGWYRQAPGKERQLVAAISYSGGSTYYADSVKGRFTISRDNAKNTVYLQMNSLKPEDTAVYYCAADVTAGDGRNDYWGIGTQVTVSS”, the “polyreactivity (PSR sort gate)” value was “low polyreactivity”. With “QVQLVESGGGLVQAGCSLRLSCAASGFTFRYYAMGSYRQAPGKERELVSAISQSGGLTFYADSVKGRFTISRDNAKITVYLQMNSLKPVDTAVFYCAAGRRTYPSKYGSWGQGSQVTVSS” the “polyreactivity (PSR sort gate)” value was “high polyreactivity”. In the case of “QVQLVESGGGLVQAGGSLRLSCAASGSTFIHNAMGWYRQAPRKERELVAAITSGGSTYYADSVKGRFTISRDNAKNTVYLQMNSLKPEDTAVYYCNRGSWRYSTMEYWGQGTQVTVSS”, the “polyreactivity (PSR sort gate)” value was “high polyreactivity”. With “QVRLVESGGGLVQAGGSLRLSCAASGSILYRYTMGWYRQAPGKETELVAAITWSDGSTYYSDSVKGRFTISRDNAKNTVYLQKNSLKPEDTAVYDCAADLWLDVDHEWSGGDYWGQGTQVTVSS” the “polyreactivity (PSR sort gate)” value was “low polyreactivity”. With “QVQLVESGGGLVQAGGSLRLSCAASGSNFDTYAMGWYRQAPGKESELVAAITRRAGSTYYADSVKGRFTISRDNAKYTVYLQMNSLKPEDTAVYYCAADFRYPDNYGGYDYWGQGTQVTVSS” the “polyreactivity (PSR sort gate)” value was “low polyreactivity”. In the case of “QVQLVESGGGLVQAGGSLRLSCAASGLIFDPNTMGWYRQAPGKERELVAAISSGGDTNYADSVKGRFTISRDNAKNTVYLQMNSQKPEDTAVYYCATDIRFHDPSEYEGVHFEYWGQGTQVTVSS”, the “polyreactivity (PSR sort gate)” value was “low polyreactivity”. With “QVQLVESGGGLVQAGGSLRLSCAASGSTFDDYALGWYRQAPGKERELVAAISFSSGSTYYADSVKGRFTISRDNAKNTVYLQMNSLKPEDTAVYYCAAEKYGWTYYFSWQEDYWGQGTQVTVSS” the “polyreactivity (PSR sort gate)” value was “high polyreactivity”. For “QVQLVESGGGLVQAGGSLRLSCAASGFIFVPYAMGWYRQAPGKERELVAAISSSGGSTNYTDSVKGRFTISRDNAKNTVYLQMISLKPEDTAVYYCAAATWYVNPTHFNRYSEFYYWGQGTQVTVSS”, the “polyreactivity (PSR sort gate)” value was “low polyreactivity”. In the case of “QVQLVESGGGLVQAGGSLRLSCAASGRIFYLNAMGWYRQAPGKERELVAAMSGSTGSTYYADSVKGRFTISRDNAKNTVYLQMNSLKPEDTAVYYCNAVLSSNTKWRYPGDYWGQGTQVTVSS”, the “polyreactivity (PSR sort gate)” value was “low polyreactivity”.
